From US20250296963A1, “PEPTIDE HAVING ANTIMICROBIAL ACTIVITY” (priority 2022, published 2025) come the findings set out here.

Common to all, as to type: cell-based
For one test, the system named is Erwinia amylovora. Briefly: MIC assay in soil slurry. How it is done:
In vitro experiments were conducted to test the behavior of the peptides as disclosed herein in soil slurry, against Erwinia amylovora. Soil slurry was generated by mixing 5 g soil in 20 ml water. This mixture was incubated for 1 h at an overhead shaker. The solid parts were removed by centrifugation and the obtained supernatant, referred to as soil slurry, was used for the MIC assay. Equal volumes of the peptide according to SEQ ID N°1 (8 mg/ml) and soil slurry were mixed and incubated overnight at 28° C. The mixture was used for MIC against Erwinia amylovora.

A further test concerns E. coli. Briefly: MIC assay, E. coli. As to the method:
(§1) The antimicrobial potential of the peptides described herein was compared with the activity of two other AMPs, TcAMP1 and TcAMP2 as discussed in WO1998027805, and antibiotics or fungicides. Comparative MIC assays were carried out against several bacterial and fungal species (Table 1).
(§2) Peptides according to SEQ ID N° 1, SEQ ID N° 2, SEQ ID N° 4, SEQ ID N° 6, and SEQ ID N° 7 were serially diluted in order to create a concentration sequence ranging from 0.39 μg/ml to […].
(§3) For the MIC assay bacteria and fungi were grown on agar plates with their respective media. Pre-cultures were prepared by inoculating either single bacterial colonies or small pieces of fungi in 5 ml of the respective liquid medium. The optical density (OD) at 600 nm was measured after one to five days and adjusted to an OD600 of 1. This cell suspension was used to prepare 1:500 dilutions, corresponding to approximately 2×10^6 microbial cells per ml.
(§4) To evaluate MICs, 96-well plates were prepared with the test antimicrobial peptides. Each well contained 100 μl microbial cell culture, 90 μl culture medium, and 10 μl peptide or control at the corresponding dilution. The plates were incubated overnight (ON) at the optimal growth temperature for each tested organism (Table 1). Results were visually evaluated and MICs determined based on growth or no-growth.
(§5) MIC assays were conducted in at least two independent replicates and with different peptide starting concentrations.

Test [1] has as its system several bacterial and fungal species. The experiment in a line: Comparative MIC assays, all tested organisms. The note with it: bacterial species of Table 3, all tested species. How it is done: as §1, §2
(§6) Pantoea, Staphylococcus, and Listeria were cultured in Trypticase Soy Broth (TSY) medium consisting of 1.7% casein peptone, 0.3% soy peptone, 0.25% glucose, 0.5% NaCl, 0.25% K2HPO4 and optionally 1.5% agar. Candida cells were cultured in Yeast Extract Peptone Dextrose (YPD) broth medium consisting of 1% yeast extract, 2% peptone, 2% glucose, and optionally 2% agar. Ceratocystis, Botrytis, Leptosphaeria, Mycosphaerella, Sclerotinia, and Verticillium were cultured in Potato Dextrose Agar (PDA) medium consisting of 2.4% Difco pre-mix broth and optionally 1.5% agar.
For the MIC assay bacteria and fungi were grown on agar plates with their respective media. […] The optical density (OD) at 600 nm was measured after one to five days and adjusted to an OD600 of 1. […]
To evaluate MICs, 96-well plates were prepared with the test antimicrobial peptides. […] Results were visually evaluated and MICs determined based on growth or no-growth. […]

Test [2] has as its system Staphylococcus aureus MRSA. Briefly: microbe, parasite or virus in culture. The note with it: Staphylococcus aureus MRSA DSM 11729, TSY, 37° C., overnight. How it is done: as §1, §2, §6, §3, §4, §5
The subject of the next test is Botrytis cinerea. The experiment in a line: microbe, parasite or virus in culture. As to conditions: Botrytis cinerea DSMZ 877, PDA, 24° C., overnight. How it is done: as §1, §2, §6, §3, §4, §5
The test system of another test is Verticillium dahliae. The experiment in a line: microbe, parasite or virus in culture. As to conditions: Verticillium dahliae SF 76, PDA, 28° C., overnight. How it is done:
as §1, §2, §6, §3, §4, §5

The next test deals with Mycosphaerella pinodes. Briefly: microbe, parasite or virus in culture. As to conditions: Mycosphaerella pinodes DSMZ 62763, PDA, 30° C., overnight. How it is done:
as §1, §2, §6, §3, §4, §5

Another test has as its system Leptosphaeria maculans. Briefly: microbe, parasite or virus in culture. As to conditions: Leptosphaeria maculans SF 70, PDA, 18° C., overnight. As to the method: as §1, §2, §6, §3, §4, §5
The next test has as its system Candida albicans. The experiment in a line: microbe, parasite or virus in culture. As to conditions: Candida albicans DSM 1386, YPD, 30° C., overnight. As to the method:
as §1, §2, §6, §3, §4, §5

The subject of a further test is Sclerotinia sclerotiorum. Briefly: microbe, parasite or virus in culture. As to conditions: Sclerotinia sclerotiorum SF 79, PDA, 18° C., overnight. As to the method: as §1, §2, §6, §3, §4, §5
The test system of test [3] is Listeria monocytogenes. The experiment in a line: microbe, parasite or virus in culture. As to conditions: Listeria monocytogenes DSM 102976, TSY, 37° C., overnight. As to the method:
as §1, §2, §6, §3, §4, §5

A further test deals with Pantoea agglomerans. The note with it: Pantoea agglomerans JUB-CC-3253, TSY, 37° C., overnight. As to the method:
as §1, §2, §6, §3, §4, §5

Test [4] relates to Listeria monocytogenes. The experiment in a line: Cow milk assay, MIC against Listeria monocytogenes. As to the method:
In vitro experiments were conducted to test the behavior of the peptides as disclosed herein in 3.5% fat cow milk, against Listeria monocytogenes. The peptide according to the SEQ ID N° 1 was adjusted to a concentration of 1 mg/ml and mixed with cow milk in equal parts. This mixture was incubated overnight at 37° C. To remove solid parts of the milk, the mixture was centrifuged and the obtained supernatant was used for MICs.

In a further test the test system is C. albicans. The experiment in a line: Peptide stability in bodily fluids (sheep blood, urine), MIC against C. albicans. The note with it: Candida albicans. How it is done: In vitro experiments were conducted to test the behavior of the peptides as disclosed herein in blood, against C. albicans. C. albicans isolates from human blood were used (DSMZ 6569). The peptide according to the SEQ ID N° 1 was adjusted to a concentration of 1 mg/ml and mixed with sheep blood in equal parts. This mixture was incubated overnight at 30° C. To remove solid parts of the blood, the mixture was centrifuged and the obtained plasma supernatant was used for MICs.
In vitro experiments were conducted to test the behavior of the peptides as disclosed herein in urine, against C. albicans. The peptide according to the SEQ ID N° 1 was adjusted to a concentration of 1 mg/ml and mixed with synthetic urine or human urine in equal parts. These mixtures were incubated overnight at 30° C. To remove solid parts of the urine, the mixture was centrifuged and the obtained supernatant was used for MICs.

The test system of another test is Ceratosystis paradoxa. The experiment in a line: organism not typed. As to conditions: Ceratosystis paradoxa DSMZ 63054, PDA, 18° C., overnight. As to the method:
as §1, §2, §6, §3, §4, §5

B1: SEQ ID No 1: Antimicrobial peptide from the N-terminal region of Theobroma cacao (CCN-51) vicilin protein, 15 kDa spot; natural, recombinant or synthetic (peptide)
chain: YGRKQYERDPRQQYEQCQRRCESEATEEREQEQCEQRCEREYKEQQRQQEEELQRQYQQCQGRCQEQQQGQREQQQCQRKCWEQYKEQERGEHENYHNHKKN
modifications: Theobroma cacao
notes: Antimicrobial peptide from the N-terminal region of Theobroma cacao (CCN-51) vicilin protein, 15 kDa spot; natural, recombinant or synthetic
On to B1, for which the “concentration inhibiting bacteria growth (MIC)” value in the test on Erwinia amylovora (control conditions) is 15 µg/mL; in the test with Erwinia amylovora (peptide (8 mg/ml) mixed with equal volume of soil slurry, overnight 28° C.) it was 25 µg/mL. The Minimal inhibitory concentration in the test on E. coli was determined as 3.1 µg/mL; in test [2], 3.1 µg/mL; in the test on Botrytis cinerea, 6.25 µg/mL; in the test with Verticillium dahliae, 1.6 µg/mL; in the test on Mycosphaerella pinodes it was 1.9 µg/mL; in the test with Leptosphaeria maculans, 3.75 µg/mL. Moreover, the Minimal inhibitory concentration came out at 0.4 µg/mL in the test on Candida albicans; 10.25 µg/mL in the test on Sclerotinia sclerotiorum; 3.1 µg/mL in the test on Listeria monocytogenes [3]; 1.1 µg/mL in the test on Pantoea agglomerans; 3.1 µg/mL in the test on Listeria monocytogenes [4] (control, milk-free (and reference drug)); 3.2 µg/mL in the test on Listeria monocytogenes [4] (control, milk-free (and reference drug), listed as SEQ ID N° 1). For the same molecule, the Minimal inhibitory concentration in the test on Listeria monocytogenes [4] (peptide 1 mg/ml mixed with 3.5% fat cow milk in equal parts, overnight 37° C., supernatant) was found to be 80 µg/mL; in the test with C. albicans (control, no bodily fluid (and reference drug)), 0.4 µg/mL; in the test with C. albicans (peptide 1 mg/ml mixed with human urine in equal parts, overnight 30° C., supernatant), 5 µg/mL; in the test on C. albicans (peptide 1 mg/ml mixed with sheep blood in equal parts, overnight 30° C., plasma supernatant), 25 µg/mL; in the test on C. albicans (peptide 1 mg/ml mixed with synthetic urine in equal parts, overnight 30° C., supernatant), 2 µg/mL; in the test on Ceratosystis paradoxa, 5 µg/mL. Further, in test [1], the “efficiency compared with the prior art peptides” value is on record as “more efficient than the prior art peptides”.
